# Assay: soluble fraction after stress (log2 fold change); higher = more stays soluble; pooled small domains, quantitative proteomics
# Settings: stress: pH 4
# Outline: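 After pH 4 stress, pooled custom libraries of small protein domains were quantified with high-throughput quantitative proteomics. Aggregation propensity is taken from the fold change in each domain's soluble amount following the acid stress. The scale is log2, where higher values mean more stayed soluble.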
row,Sequence,soluble fraction (log2)
1,HMKKSRLHSVLEEIPGIGEKRRKILIKHFGTVEAIKKSSLEELARIKGMNRRAAQNVLEYLK,0.407
2,HMSWAGRRSLAALEARYRDETGISNLKIKHNGVLGYHIEVPSKSADKLMAPDSGFTHRQTLAGAVR,0.00623
3,HMNAKKSTLQLDLLKQLLEGNKISLKDFSLSNEISIRTAQRYIEDLLEIFEKNIVKEGDFYSFIS,-1.34
4,HMSNMWVWSKLSGIQWMDAWEDRFHGNPNTVITRLKTNKTVRVEVYTETEQEALDIKKLFGGSIRKLV,0.103
5,HMRDIGKNIRYYREKKGYSQEQLAQLLFVTRQTVSNYETSRSRPDVETLVKLAGLLDIDVTDLIYGPR,0.0792
6,HMNGGPHYLRDVRTSLGLSQADLAKAVGTSANMIHYLESGERALTLKWIRRISEALNVSPMRLIN,-0.0552
7,HMEGFSAGQFVRASVDNTAFYLKRPKGDAVADKLLRRGASMKVISASGDYLKVELDSGEVGFVPPVMVE,0.0892
8,HMHDLSQQIVRYLIQQGGSSSLTDKSDPQEIYRTFKVSKKKYKQALGNLYKSKTIVITSGKIELVD,0.306
9,HMKKVKVPNVVGMSLKEARDALSAVNIAVNQVAGSVEDKSVVTEQSLKAGDEVDEGSSLNLTTEYK,0.412
10,HMNYAVTAARRESILNAALEIFGKSGYNGSSVKQVALAVGMTEAGVLHHFGTKSNLLIEVLRV,≥ 0.43
11,HMTKYEKKIFEIVNASRDHLTAEQVLAALREEYPAVSQATVYNNLKKLTSDGLLRKLTLADSPDRYD,0.211
12,HMLEPEVLDLIGQVKSVHHFSVTQSHQLEKLVRHAHTLGFEIAELKSLLASSPNAKSLLSSLDQKLEPLRM,0.0896
13,HMGARHPLPYPFARAHGLLLEADGERSTLWASTNVSPAALSEVMRKYAVDVIEEEPPETLSQRIAAAYAA,-0.763
14,HMEETEVPPVTGYEQSKASEVLTGKGLIPDIITVADEETAAGYVIRTDPASGEKVPSGTTVKVYVSSGP,-0.0585
15,HMFVNADEIAKGLSPFNPSSVAIEAGRLMLKRIGELLSAGVSFSVETTLSTRSYINLIQQAQNQGYSVSL,≥ 0.43
16,HMDLDIRDDIYRANIPNDYKLQQMQNNIDYDKVLTGYYNNRPEANVIANRTLQLANDVYNRD,-0.296
17,HMTYAQQIGARIAFLRRLKGLTLAELAERVNKHKSTISKYESGQIIIDIESLKEVADALGVDVAQIVE,0.187
18,HMNQSAVMAERMKQTKNRILQTAKEIFLEQGYKRTTIRQIVERSGITSGSIYNIFSSKEEIFSALVDDL,-1.77
19,HMAPKVTLNETETAIFEKMQQEKQLLLSELRTHFDISNKLWDTSIKTLTKNQLLTVSKEADLLWIKL,-0.935
20,HMDAMLSEQLREKRGELLIEVDAIAGNALRWATLSAEQQDAWAVYRQALLDVPQQAGFPNDVVWPINPN,-0.982
21,HMAAGVESLTEKEFAVASLVGGGASNREIAERLAMSERTVKSHLSSIFRKMDVRDRVQLALAMND,-0.0425
22,HMSESEDFQNRWRPWRSLLDDETPVVREALVDQLKLFPEEGRLFLQQMSEEDDPISARHAFELIKSLGW,-1.11
23,HMQSVKTQPLRDWLLAHFDKPYPDDEDKVRLAEASGMTRAQVGNWFINARVRTWRPMVLDLGEEIERESV,-0.521
24,HMEASVNAPMPGKIVSVSVSEGQQVNAGDVLLILEAMKMQNEITADAAGTVKAINVNAGQSVKNGDSLVIL,-0.586
25,HMRRRKPLVSYEYGTRVYAPSEGEPRYRVVATDADGQRVFAKFSSEEAARHRAREIEGRLATS,0.0937
26,HMDPTYYFNLYPNPSKDEVSLFTNFTGKINIEILDLAGKSILSDNPISTISLVSLKEGLYLVKVKS,-0.337

row,Sequence,soluble fraction (log2)
1,HMTKNIIVTTSVKTSDELVEVAKNHALNLELDFNYRNKKTIKELLSSFDGLVVIYKNKISYFEDNSELF,0.22
2,HMADKNIIGVLSAADNLGKVRITTANGEKYIITVPDGLSDIVKTYWEEEVSVKYVIEKRRKILVDIDG,-0.47
3,HMGTRHPLPYAYARANTVLLEDDGDRLVLWAPENVSLTALGEVLRRFDVDALERESSSTLANRIAVAYAG,-0.896
4,HMISEGDIIKGTVIDVNEEEVILDLKYYAQGVIKAENLSNDPDFLAAGKISVGDEIEATVIKMDDGEGNIE,-0.496
5,HMAVRTELLALPAGWHGDASRLSTALAALQGVREAVVIASEGVAYLKVHGHDWDRDGARELLQN,-0.199
6,HMNDNFTPDDLNRLARIKDLPQAKKYALELISNKSAKPMKPEKVRWFANQLQKKKSVMDITKMMYDLLLA,0.198
7,HMKLHQDLQIKVIDAANNKVEFIDTATGTSLATRTLDVNGVSKARGFEATLYGVVEDNDVFHIA,-0.116
8,HMSEVIYVAEDNVGQRIDVFLVNKLVDASRANIQKNIVDGVILVNNKNVKANYKLRLGDVVEIRTQ,-0.317
9,HMHVLAVDEALHKLTELNELHAKIVEMRFFSGMTVQEVADELGVSKRKIESEWTMIKAWLRKELN,-0.916
10,HMQVLLTRREKEILKLIAEGLTSAEIGKRLFISTTTVDTHRKHLLEKLKAGNTAILIKTAVQLDLI,-0.223
11,HMPAVTEQTKTNLRRAFWQLYEQKPIQKITVKQITDLAGYNRGTFYLYFKDVYDLLDDIENK,-0.584
12,HMVTVNAFGKSGPEPAAMTKEALAKGADEVRVIVDSPTAAASVRDFLIGAGLRVQLQDDEGQLIVVGEKK,0.344
13,HMNLIFFSENLSTFRKEKGWTQSELAEKLGVKANTISNYEKGISTPDYKIIAKLRELFEMPTDVLLYSNLS,-0.97
14,HMASGLITEEQAKSKALAHAGLSASQVNFIWVKQDWEDGRRVYEVEFYTDDYQEYDYEIDARTGEILSFDY,-1.06
15,HMVTLQEVKQYLRIDFEEEDPLLLSLLATAKQQVMNVGRMDEAQLSEHEDTARTAILYAVSYLYENRN,-1.63
16,HMNPSPYLRRHLSGDWGDLDEDDRRSNDAALASGEARLLSSYQVDPDLKLWIITEWDRSVTTLLLPSE,≥ 0.43
17,HMRNTETMKEIQAFVEDYFFEYHQSPSMQKVADAIGTSKSTAYYYVMEMARNGMLHYDGKTIETPHTQKS,0.285
18,HMAKSETAKIKATPYGWLRVRDTPSLNGAEIARVNSGDEYKVLEKETGWIKIKVSDTVEGWVSDAYIELS,0.16
19,HMDALIWYVSRGQQKFGPFNYFGVLKALQDKSVFEFDYVWKEGTENWVRLAEHELFSQEKVRELLA,-0.679
20,HMQLNNTDELEKIILKILENNPKQVDQFLAGKQKLLGFFVGQAMRATSGKANPKTVNDLLEKFLSK,-0.335
21,HMPMPQDEVSYALGLSIGQNFKASGIKAITSEDFIAGLQDALAEREPQMTTERAREVINQLFMRLQQEESE,-0.784
22,HMITNLEPFKDFVRGFSGLHLEGVGQEKLAAALDERIRKTGSANERDYLQLIMEDVAERLKLINILT,-1.17
23,HMSNRFIQFRQRAIDWLNSDRDFNAGILLLEESGFKPGVVAKLKRHGVNGPEAKKRLKFLINELVKAWA,-0.374
24,HMVDDNFGLGEVTDQNYLTVLGRALDLIGWTDEQADSYSLKTFGVPHWDELGRSQAEKLVAHLIGLLKEQM,-0.157
25,HMLLFSVADIVKRSKRILSFKTDAELAAYFGVSRSTLSNWIARNSIDFPLLLSKMKDVDYTWLILGKGTPG,-0.207
26,HMPTNVYSIIGKEGIVLESIDNLNSTGKVKVNGELWSAISDSNIEKGETIKVLSVNGVKLKVEKVN,-0.0569

row,Sequence,soluble fraction (log2)
1,HMNKKEIISVLEKIIPPSQIKNINIFGSELVIDLNIDNPSLHAKKKLEKSIMSSFDENLKIIVNFSVE,0.22
2,HMARDSYNGVQRTISTLLGQGNYDRAYDVAVGARGQMSKQQWSDVAKRIYEVSGIKIDDSVKY,-0.0224
3,HMNLDMVINKIGIVTEDIKQDKIGEVKVLGKRWSAYSNTELKKDEKVKILSIDGVKLKVEKI,0.413
4,HMVKIIHYEVYANRGDGWKLVDQFSADQRQEAVNLAKEIETEDQVAVKIIREIFDVQDNTYQESVEYIG,-0.804
5,HMSDAGMNQIGDMFRAPDLMAKLAMNPATREYVSQPDFLAMMEEVKRNPSALNNHLRDPRMMNVLSVAM,-0.48
6,HMDYNMEEWSLTADQLKSGDTILILNLGKTATLLESTRGKKNVRVRMGNIKTIVETSSIRGNPHQ,-0.729
7,HMHKREKSFFETIYDDIPGIGKKRRVQLLSAYPTLDSLKSVTLEELKQIVPEESAKLILEKRDSR,0.407
8,HMIAPQISSGKVNTKELNVRSGPATTFGIVKKLPLNAMVGIFEEKNGWFRIATGQWVSKTYVDL,0.187
9,HMNQSYQLWIKDDELGPTPRSVGVLNEHFEVDPAALTNYDAELLRRATFGISLEPRGGSPTGQP,-0.688
10,HMQISGIHLYERRITKDDEWAERKLSEISLAGSLVILILRNEHVVIPNGETVLKENDLLYISD,-1.38
11,HMNTPTLLLYGGKDHSVPEAGIRHLRAHLSANDRGEYRFYPNAPHLLLQSRQWQQVSQDISQWLAMT,0.0454
12,HMETISEIWRLIDGLDEIYRVPLTMYYRSNRSVREIAETLGLSARTVETRIYRARRMIREKWSN,-0.679
13,HMRLDSELVSARLHRFMGTNRKPDGEIVEKIAAILEGHPIETLDAFLQSLNGRKIKSYGFFPTVLRREIAN,-0.114
14,HMVKSYEVPDVSNLTVLEAEAKLQEMGFEIDEEQKEISSSDIESGRVVKTSPQAGSKRKEGAIITLYVSSG,-0.433
15,HMATPKYMELVRWINEQIESKNLVPGQKMYSENTLKEMFGVSRQTVRHAIGVLENEGVIRRIQGSGTYIN,0.163
16,HMKNIFDWLKQINYHKQPADSFTEKDWELFNSYMVHRFMSMNREFIEVVNYVQEMPPQEKILIYNIYREF,0.25
17,HMGGQKTREAIFDLIMTNSKITSAQIAEILGIHRSGVARHLKKLQEEGLIKREGPDNGGQWIVIK,-0.298
18,HMEWTDIPTHKVPNVVGKSVEEAKKKLSKFTIEYSGTGEKVVAQSPDAGEKLEEGGTVRLLL,0.00183
19,HMQQISDPQVLRPMAEEVLHQSQKVVQDYKGGNKNAFHALVGQMMKKTQGKGNPQVIGQVLSELLDE,-0.284
20,HMWTKKELWNAIAKLPKKQRTVVMMRIAQNLPYKDISEITGMSIGSAKVNYHHAVNSLKQWLS,0.22
21,HMVIVMRKDADAASIEKVVSEVKSRGFMPHVSEGESRTLIGAIGPAPTEELREHFAGLAGVETVVRITK,-0.0319
22,HMNPAYTDSRMKTFLEELPVMKASLSQKHVTRFLVWQEYIGRHPDGYGKSQFFYHLKQNLVAAKG,0.0452
23,HMGTYYTEIIAQLKKEIANGTWKLGERLPGELALAKQFNVSRSSIREALKALAYAGIVESKPGRGTFLLHV,-0.207
24,HMDLDIQNYNLDEILELFKVSYDFDETELKKAHKMYLMTHPDKSNLNPNIFLFFVQAYDILRKLYEFR,-1.66

# From the domain aggregation screens of Martell et al. (2025)
